The record followed here is article PMC4450493, “Binding of undamaged double stranded DNA to vaccinia virus uracil-DNA Glycosylase”.

The series has as its target D4 (vaccinia virus uracil-DNA glycosylase, tfD4) (Vaccinia virus, UniProt P04303 1-218). The experiment in a line: X-ray crystallography (2.89 A); undamaged DNA without uracil; glycerol in active sites; no A20. As to conditions: protein: recombinant; tags: His6 tag cleaved; three vector-encoded residues GSH remain at N-terminus; chain copies: 2; blunt; palindromic, two copies of the same strand.

B1: self-complementary 12mer dsDNA (dsDNA)
DNA 1: GCAAACGTTTGC
DNA 2: GCAAACGTTTGC
With B1, the binding result was “binds”.
